In patent US20180155451A1 (published 2018):

T1: FcgRIIa H extracellular domain with C-terminal His tag (human, UniProt P12318 34-217)
T1 construct: extracellular domain; also called FcγRIIa H; FcγRIIa type H; not shown: His tag attached to the C terminus
T1 sequence (looked up): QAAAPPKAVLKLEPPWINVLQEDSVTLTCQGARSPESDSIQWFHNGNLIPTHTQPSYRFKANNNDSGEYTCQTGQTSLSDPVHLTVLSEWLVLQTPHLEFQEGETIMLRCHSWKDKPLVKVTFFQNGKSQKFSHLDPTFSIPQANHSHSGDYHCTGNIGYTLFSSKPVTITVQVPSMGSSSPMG

T2: FcgRIIb extracellular domain with C-terminal His tag (human, UniProt P31994 43-217)
T2 construct: extracellular domain; also called FcγRIIb; not shown: His tag attached to the C terminus
T2 sequence (looked up): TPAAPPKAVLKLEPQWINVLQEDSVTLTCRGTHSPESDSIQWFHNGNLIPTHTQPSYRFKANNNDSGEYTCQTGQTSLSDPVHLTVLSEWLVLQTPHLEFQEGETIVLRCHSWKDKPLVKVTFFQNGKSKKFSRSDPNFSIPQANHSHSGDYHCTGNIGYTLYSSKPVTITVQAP

T3: FcgRIIa R extracellular domain with C-terminal His tag (human, UniProt P12318 34-217)
T3 construct: extracellular domain; also called FcγRIIa R; FcγRIIa type R; not shown: His tag attached to the C terminus
T3 sequence (looked up): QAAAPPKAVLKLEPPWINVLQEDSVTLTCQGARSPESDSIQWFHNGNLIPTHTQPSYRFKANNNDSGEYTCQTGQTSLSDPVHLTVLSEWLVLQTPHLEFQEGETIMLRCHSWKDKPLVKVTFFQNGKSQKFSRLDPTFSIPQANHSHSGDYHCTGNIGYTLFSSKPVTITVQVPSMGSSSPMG

B1: H240-G1d/L73-k0 (antibody, human IgG1, kappa)
heavy: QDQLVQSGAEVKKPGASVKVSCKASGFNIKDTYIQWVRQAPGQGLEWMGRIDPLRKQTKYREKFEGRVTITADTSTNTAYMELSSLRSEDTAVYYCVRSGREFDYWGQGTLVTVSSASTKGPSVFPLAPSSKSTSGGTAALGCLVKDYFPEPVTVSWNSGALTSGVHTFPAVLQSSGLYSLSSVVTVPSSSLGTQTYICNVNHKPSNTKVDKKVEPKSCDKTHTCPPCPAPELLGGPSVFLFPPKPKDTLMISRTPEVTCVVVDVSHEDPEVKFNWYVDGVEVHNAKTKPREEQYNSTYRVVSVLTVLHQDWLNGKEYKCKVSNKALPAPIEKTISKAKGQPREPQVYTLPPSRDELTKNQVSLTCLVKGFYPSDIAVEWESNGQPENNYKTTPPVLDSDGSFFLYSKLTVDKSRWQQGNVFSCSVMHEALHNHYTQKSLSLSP
light: DIQMTQSPSSLSASVGDRVTITCRASQDIHKYIAWYQQKPGQAPRLLIQYTSTLQPGVPSRFSGSGSGTDYTFTISSLQPEDIATYYCLQYEQLRTFGGGTKVEIKRTVAAPSVFIFPPSDEQLKSGTASVVCLLNNFYPREAKVQWKVDNALQSGNSQESVTEQDSKDSTYSLSSTLTLSKADYEKHKVYACEVTHQGLSSPVTKSFNRGEC
notes: Anti-epiregulin (EREG) IgG1; also called native IgG1 (anti-epiregulin)
B2: H240-Kn033/H240-Hl033/L73-k0 (antibody, human IgG1, kappa)
heavy 1: not shown
heavy 2: not shown
light: DIQMTQSPSSLSASVGDRVTITCRASQDIHKYIAWYQQKPGQAPRLLIQYTSTLQPGVPSRFSGSGSGTDYTFTISSLQPEDIATYYCLQYEQLRTFGGGTKVEIKRTVAAPSVFIFPPSDEQLKSGTASVVCLLNNFYPREAKVQWKVDNALQSGNSQESVTEQDSKDSTYSLSSTLTLSKADYEKHKVYACEVTHQGLSSPVTKSFNRGEC
notes: Knobs-into-holes only (control)
B3: H240-Kn032/H240-Hl032/L73-k0 (antibody, human IgG1, kappa)
heavy 1: QDQLVQSGAEVKKPGASVKVSCKASGFNIKDTYIQWVRQAPGQGLEWMGRIDPLRKQTKYREKFEGRVTITADTSTNTAYMELSSLRSEDTAVYYCVRSGREFDYWGQGTLVTVSSASTKGPSVFPLAPSSKSTSGGTAALGCLVKDYFPEPVTVSWNSGALTSGVHTFPAVLQSSGLYSLSSVVTVPSSSLGTQTYICNVNHKPSNTKVDKKVEPKSCDKTHTCPPCPAPELLGGPDVFLFPPKPKDTLMISRTPEVTCVVVDVSHEDPEVKFNWYVDGVEVHNAKTKPREEQYNSTYRVVSVLTVLHQDWLNGKEYKCKVSNKALPLPEEKTISKAKGQPREPQVCTLPPSRDELTKNQVSLWCLVKGFYPSDIAVEWESNGQPENNYKTTPPVLDSDGSFFLYSKLTVDKSRWQQGNVFSCSVMHEALHNHYTQKSLSLSP
heavy 2: QDQLVQSGAEVKKPGASVKVSCKASGFNIKDTYIQWVRQAPGQGLEWMGRIDPLRKQTKYREKFEGRVTITADTSTNTAYMELSSLRSEDTAVYYCVRSGREFDYWGQGTLVTVSSASTKGPSVFPLAPSSKSTSGGTAALGCLVKDYFPEPVTVSWNSGALTSGVHTFPAVLQSSGLYSLSSVVTVPSSSLGTQTYICNVNHKPSNTKVDKKVEPKSCDKTHTCPPCPAPELLGGPDVFLFPPKPKDTLMISRTPEVTCVVVDVSHEDPEVKFNWYVDGVEVHNAKTKPREEQYNSTYRVVSVLTVLHQDWLNGKEYKCKVSNKALPLPEEKTISKAKGQPREPQVYTLPPSRCELTKNQVSLSCAVKGFYPSDIAVEWESNGQPENNYKTTPPVLDSDGSFFLVSKLTVDKSRWQQGNVFSCSVMHEALHNHYTQKSLSLSP
light: DIQMTQSPSSLSASVGDRVTITCRASQDIHKYIAWYQQKPGQAPRLLIQYTSTLQPGVPSRFSGSGSGTDYTFTISSLQPEDIATYYCLQYEQLRTFGGGTKVEIKRTVAAPSVFIFPPSDEQLKSGTASVVCLLNNFYPREAKVQWKVDNALQSGNSQESVTEQDSKDSTYSLSSTLTLSKADYEKHKVYACEVTHQGLSSPVTKSFNRGEC
notes: S239D/A330L/I332E in both H chains (called homodimerized)
B4: H240-afucosyl_G1d/L73-k0 (antibody, human IgG1, kappa)
heavy: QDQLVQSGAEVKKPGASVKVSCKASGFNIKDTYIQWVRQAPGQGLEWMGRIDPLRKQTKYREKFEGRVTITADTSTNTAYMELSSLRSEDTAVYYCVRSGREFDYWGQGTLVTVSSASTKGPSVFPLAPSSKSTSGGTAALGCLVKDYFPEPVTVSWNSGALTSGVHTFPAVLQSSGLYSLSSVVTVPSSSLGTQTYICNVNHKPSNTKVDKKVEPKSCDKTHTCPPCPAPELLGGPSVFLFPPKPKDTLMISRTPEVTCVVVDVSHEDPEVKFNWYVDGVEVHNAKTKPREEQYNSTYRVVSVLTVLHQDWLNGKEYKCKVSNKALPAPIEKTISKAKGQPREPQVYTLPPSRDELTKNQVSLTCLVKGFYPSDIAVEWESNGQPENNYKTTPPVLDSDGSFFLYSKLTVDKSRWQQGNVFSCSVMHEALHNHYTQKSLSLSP
light: DIQMTQSPSSLSASVGDRVTITCRASQDIHKYIAWYQQKPGQAPRLLIQYTSTLQPGVPSRFSGSGSGTDYTFTISSLQPEDIATYYCLQYEQLRTFGGGTKVEIKRTVAAPSVFIFPPSDEQLKSGTASVVCLLNNFYPREAKVQWKVDNALQSGNSQESVTEQDSKDSTYSLSSTLTLSKADYEKHKVYACEVTHQGLSSPVTKSFNRGEC
modifications: fucose removed from the sugar chain (afucosylated)
notes: also called afucosylated antibody

What was measured:
Assay in all cases: SPR (Biacore), antibody captured on chip, FcγR extracellular domain as analyte, kinetic analysis
[1] = biological target: T1, FcgRIIa H extracellular domain with …
Procedure: (§1) Analysis of interaction between obj ective antibody and the FcγR was carried out using Biacore T100 (GE Healthcare), Biacore T200, Biacore A100, and Biacore 4000. HBS-EP+ (GE Healthcare) was used as the running buffer, and the measurement temperature was set to 25° C. Chips produced by immobilizing the antigen peptide by the amine coupling method to a Series S sensor Chip CM5 (GE Healthcare), chips produced by allowing preliminarily biotinylated antigen peptides to interact with and immobilize onto a Series S Sensor Chip SA (certified) (GE Healthcare), chips produced by immobilizing Protein L (ACTIGEN, BioVision) to Series S Sencor Chip CM5 (GE Healthcare), or chips produced by immobilizing Protein A/G (Thermo Scientific) to Series S Sencor Chip CM5 (GE Healthcare) were used. Antibodies of interest were captured onto these chips, and allowed to interact to each FcγR diluted with running buffer. To regenerate and repeatedly use the chip, the antibodies captured onto the chip were washed off by reacting 10 mM glycine-HCl, pH 1.5.

[2] = biological target: T2, FcgRIIb extracellular domain with …
Procedure: as §1

[3] = biological target: T4, FcgRIIIa F extracellular domain with C-terminal His tag (human, UniProt P08637 17-208)
T4 construct: extracellular domain; also called FcγRIIIa F; FcγRIIIa (F158); not shown: His tag attached to the C terminus
T4 sequence (P08637 17-208): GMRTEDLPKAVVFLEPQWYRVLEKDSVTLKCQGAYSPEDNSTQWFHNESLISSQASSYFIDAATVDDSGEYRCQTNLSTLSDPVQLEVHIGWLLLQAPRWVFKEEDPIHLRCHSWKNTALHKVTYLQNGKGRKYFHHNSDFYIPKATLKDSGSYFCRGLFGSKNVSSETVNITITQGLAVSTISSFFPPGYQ
Procedure: as §1

[4] = biological target: T5, FcgRIa extracellular domain with C-terminal His tag (human, UniProt P12314 16-292)
T5 construct: extracellular domain; Expressed in FreeStyle293 cells; used as analyte in Biacore; also called FcγRIa; FcγRI; not shown: His tag attached to the C terminus
T5 sequence (P12314 16-292): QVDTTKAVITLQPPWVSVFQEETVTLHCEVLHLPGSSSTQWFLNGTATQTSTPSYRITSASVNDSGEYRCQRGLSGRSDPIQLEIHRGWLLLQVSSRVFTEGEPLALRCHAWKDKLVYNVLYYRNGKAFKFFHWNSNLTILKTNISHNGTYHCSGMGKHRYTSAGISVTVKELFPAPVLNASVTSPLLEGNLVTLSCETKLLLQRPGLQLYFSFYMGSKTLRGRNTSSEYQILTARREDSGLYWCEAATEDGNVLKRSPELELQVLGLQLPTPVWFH
Procedure: as §1

[5] = biological target: T3, FcgRIIa R extracellular domain with …
Procedure: as §1

[6] = biological target: T6, FcgRIIIa V extracellular domain with C-terminal His tag (human, UniProt P08637 17-208)
T6 construct: extracellular domain; also called FcγRIIIa V; FcγRIIIa (V158); not shown: His tag attached to the C terminus
T6 sequence (P08637 17-208 F176V): as the sequence (P08637 17-208) above, with F160V counted along it
Procedure: as §1

Binder	Kd [1] [nM]	Kd [2] [nM]	Kd [3] [nM]	Kd [4] [nM]	Kd [5] [nM]	Kd [6] [nM]
B1	660	6000	1400	0.23	880	310
B2	930	4100	2600	0.25	1000	390
B3	690	620	9.1	0.073	340	3.1
B4	780	2600	78	0.43	490	6.9
